The text below walks through data of article PMC7876468 (Frontiers in Medicine, 2021).

Residue numbers refer to the chain shown, from its start.

This assay deals with T1, CHIKV VLPs (Chikungunya virus, VLP strain not …, UniProt Q5XXP3).
T1 construct: also called CHIKV virus-like particles
The assay can be described thus: MagPlex direct binding assay. The settings on record: both partners purified.

T1 sequence (Q5XXP3 whole entry, looked up): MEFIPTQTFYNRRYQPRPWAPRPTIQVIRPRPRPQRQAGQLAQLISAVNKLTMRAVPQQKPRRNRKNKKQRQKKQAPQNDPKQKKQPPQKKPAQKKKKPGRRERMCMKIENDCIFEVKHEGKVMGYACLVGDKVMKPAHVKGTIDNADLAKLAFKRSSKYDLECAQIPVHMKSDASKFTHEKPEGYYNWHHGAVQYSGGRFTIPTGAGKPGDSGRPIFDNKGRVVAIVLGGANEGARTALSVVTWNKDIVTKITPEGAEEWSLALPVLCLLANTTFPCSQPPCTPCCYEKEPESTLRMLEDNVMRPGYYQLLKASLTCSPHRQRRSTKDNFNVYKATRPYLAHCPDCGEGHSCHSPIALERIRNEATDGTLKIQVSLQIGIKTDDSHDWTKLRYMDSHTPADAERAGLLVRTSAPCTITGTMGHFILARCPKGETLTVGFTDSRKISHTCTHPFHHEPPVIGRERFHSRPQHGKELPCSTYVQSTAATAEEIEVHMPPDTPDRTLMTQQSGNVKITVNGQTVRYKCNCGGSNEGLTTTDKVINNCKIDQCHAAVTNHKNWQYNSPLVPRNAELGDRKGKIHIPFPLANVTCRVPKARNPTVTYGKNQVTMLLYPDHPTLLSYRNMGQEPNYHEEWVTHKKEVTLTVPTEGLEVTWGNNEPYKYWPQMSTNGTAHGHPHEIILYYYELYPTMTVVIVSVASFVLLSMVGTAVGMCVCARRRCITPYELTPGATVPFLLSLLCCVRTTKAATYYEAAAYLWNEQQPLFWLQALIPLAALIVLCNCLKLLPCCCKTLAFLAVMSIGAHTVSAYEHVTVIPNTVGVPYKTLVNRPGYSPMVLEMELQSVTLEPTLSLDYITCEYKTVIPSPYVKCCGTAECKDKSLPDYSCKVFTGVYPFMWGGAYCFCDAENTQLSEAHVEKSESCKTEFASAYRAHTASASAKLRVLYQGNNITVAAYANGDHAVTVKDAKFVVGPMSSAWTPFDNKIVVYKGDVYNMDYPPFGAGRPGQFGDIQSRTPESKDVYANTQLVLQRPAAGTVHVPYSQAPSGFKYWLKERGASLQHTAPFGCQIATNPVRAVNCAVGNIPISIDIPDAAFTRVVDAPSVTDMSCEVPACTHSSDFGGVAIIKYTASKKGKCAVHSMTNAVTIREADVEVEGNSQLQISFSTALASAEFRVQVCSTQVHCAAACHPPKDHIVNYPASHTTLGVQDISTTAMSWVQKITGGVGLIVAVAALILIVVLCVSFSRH

B1: CC3-hop (VHH)
VHH: EVQLQASGGGSVQAGGSLRLSCVTSQNLFEYYTMGWYRQVPGSQRERVALINNGGSTVAGSVEGRFTISRDHAKNSVYLQMNYLKPEDSAVYYCRAFGPADYWGQGTQVTVSS
notes: also called CC3 with the hop tail; original CC3-hop
B1: the binding result is recorded as “binds”.

B2: CC3-m8hop (VHH)
VHH: B1 VHH with E1Q, Q3K, E63K
notes: Theoretical pI 9.18; also called variant 8
As to B2, the binding result was “binds”.

B3: CC3-m4hop (VHH)
VHH: B1 VHH with Q5V, A6E
notes: Theoretical pI 7.04
For B3, the binding result is “binds”.

B4: CC3-m2hop (VHH)
VHH: B1 VHH with Q5V, A6E, G16D, K85Q
notes: Theoretical pI 6.35
For the molecule B4, the binding result is “binds”.

B5: CC3-m3hop (VHH)
VHH: B1 VHH with Q5V, A6E, K85Q
notes: Theoretical pI 6.63
B5: the binding result is reported as “binds”.

B6: CC3-m5hop (VHH)
VHH: B1 VHH with Q3K
notes: Theoretical pI 8.40
Turning to B6, the binding result was “binds”.

B7: CC3-m7hop (VHH)
VHH: B1 VHH with E1Q, Q3K, E63V
notes: Theoretical pI 9.0
Consider B7, for which the binding result is recorded as “binds”.

B8: CC3-m9hop (VHH)
VHH: B1 VHH with E1Q, Q3K, E63K, P86R
notes: Theoretical pI 9.35; also called variant 9
Take B8: the binding result is recorded as “binds”.

B9: CC3-m6hop (VHH)
VHH: B1 VHH with E1Q, Q3K
notes: Theoretical pI 8.75
B9: the binding result is given as “binds”.
